From publication PMC2756588

T1: Abp1, P15891
T1 sequence (P15891 535-592, looked up): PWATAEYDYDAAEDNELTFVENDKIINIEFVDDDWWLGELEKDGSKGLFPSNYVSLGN

T2: Bbc1, P47068
T2 sequence (P47068 1-78, looked up): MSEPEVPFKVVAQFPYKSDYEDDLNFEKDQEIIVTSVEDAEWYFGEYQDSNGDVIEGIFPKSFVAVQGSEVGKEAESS

T3: Boi1, P38041
T3 sequence (P38041 1-86, looked up): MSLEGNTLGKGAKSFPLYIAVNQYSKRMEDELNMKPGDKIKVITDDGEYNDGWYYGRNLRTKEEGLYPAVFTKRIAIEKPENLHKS

T4: Boi2, P39969
T4 sequence (P39969 32-116, looked up): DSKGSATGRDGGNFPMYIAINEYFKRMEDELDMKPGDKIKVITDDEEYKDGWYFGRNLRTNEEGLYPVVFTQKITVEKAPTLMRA

T5: Bud14, P27637
T5 sequence (P27637 247-328, looked up): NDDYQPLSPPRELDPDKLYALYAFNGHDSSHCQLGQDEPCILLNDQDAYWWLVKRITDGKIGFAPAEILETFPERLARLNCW

T6: Bzz1-1, P38822
T6 sequence (P38822 478-572, looked up): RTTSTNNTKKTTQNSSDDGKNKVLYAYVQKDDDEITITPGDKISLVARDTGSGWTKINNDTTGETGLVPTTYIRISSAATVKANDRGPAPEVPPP

T7: Bzz1-2, P38822
T7 sequence (P38822 568-633, looked up): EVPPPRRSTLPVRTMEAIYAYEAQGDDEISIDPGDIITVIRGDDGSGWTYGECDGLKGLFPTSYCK

T8: Cdc25, P04821
T8 sequence (P04821 50-136, looked up): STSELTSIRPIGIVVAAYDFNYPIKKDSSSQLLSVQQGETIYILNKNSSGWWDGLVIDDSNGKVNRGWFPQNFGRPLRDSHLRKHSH

T9: Cyk3, Q07533
T9 sequence (Q07533 1-83, looked up): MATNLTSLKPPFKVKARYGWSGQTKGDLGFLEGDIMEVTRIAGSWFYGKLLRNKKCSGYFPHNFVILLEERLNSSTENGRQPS

T10: Fus1, P11710
T10 sequence (P11710 432-512, looked up): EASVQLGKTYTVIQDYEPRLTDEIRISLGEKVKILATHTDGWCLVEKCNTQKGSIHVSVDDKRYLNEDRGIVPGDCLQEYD

T11: Hof1, Q05080
T11 sequence (Q05080 590-669, looked up): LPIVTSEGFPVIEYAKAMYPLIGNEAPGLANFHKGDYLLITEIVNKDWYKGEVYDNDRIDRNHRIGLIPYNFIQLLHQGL

T12: Hse1, P38753
T12 sequence (P38753 208-285, looked up): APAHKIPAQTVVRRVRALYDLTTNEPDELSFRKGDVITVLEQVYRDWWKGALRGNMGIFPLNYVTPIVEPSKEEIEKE

T13: Lsb1, P53281
T13 sequence (P53281 45-122, looked up): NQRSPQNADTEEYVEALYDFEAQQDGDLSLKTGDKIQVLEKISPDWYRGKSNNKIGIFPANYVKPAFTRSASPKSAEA

T14: Lsb3, P43603
T14 sequence (P43603 385-451, looked up): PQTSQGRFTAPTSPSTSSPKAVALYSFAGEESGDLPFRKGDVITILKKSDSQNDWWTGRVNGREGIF

T15: Lsb4, P32793
T15 sequence (P32793 402-468, looked up): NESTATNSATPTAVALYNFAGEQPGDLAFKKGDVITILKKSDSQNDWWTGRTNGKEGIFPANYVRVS

T16: Myo5, Q04439
T16 sequence (Q04439 1072-1160, looked up): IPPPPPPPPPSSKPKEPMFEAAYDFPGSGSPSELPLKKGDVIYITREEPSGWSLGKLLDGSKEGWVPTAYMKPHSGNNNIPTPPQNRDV

T17: Nbp2, Q12163
T17 sequence (Q12163 103-180, looked up): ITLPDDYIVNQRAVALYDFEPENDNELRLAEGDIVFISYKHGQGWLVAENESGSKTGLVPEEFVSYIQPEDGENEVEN

T18: Pex13, P80667
T18 sequence (P80667 295-386, looked up): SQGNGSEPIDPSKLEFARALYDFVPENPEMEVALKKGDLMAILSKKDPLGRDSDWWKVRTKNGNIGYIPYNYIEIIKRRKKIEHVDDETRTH

T19: Pin3, Q06449
T19 sequence (Q06449 53-122, looked up): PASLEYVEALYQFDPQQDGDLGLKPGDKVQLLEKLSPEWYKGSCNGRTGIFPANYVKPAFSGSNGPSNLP

T20: Sla1-2, P32790
T20 sequence (P32790 60-140, looked up): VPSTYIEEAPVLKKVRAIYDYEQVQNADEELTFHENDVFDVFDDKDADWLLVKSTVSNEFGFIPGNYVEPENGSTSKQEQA

T21: Sla1-3, P32790
T21 sequence (P32790 344-424, looked up): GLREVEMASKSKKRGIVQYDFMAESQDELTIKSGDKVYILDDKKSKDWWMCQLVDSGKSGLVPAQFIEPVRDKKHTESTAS

B1: unnamed (peptide)
chain: GDHPKGPPPPPPPDE
B2: unnamed (peptide)
chain: TPRLSLPRLPNKHHW
B3: unnamed (peptide)
chain: DHPKGPPPPPPPDEK
B4: unnamed (peptide)
chain: VPKEPAPAPPPEPDM

Legend:
Test in all cases: SPOT array
Abp1, P15891 = target: T1, Abp1, P15891; settings: median of control spots 935
Bbc1, P47068 = target: T2, Bbc1, P47068; settings: median of control spots 796
Bem1-1, P29366 = settings: median of control spots 4282
Bem1-2, P29366 = settings: median of control spots 4347
Boi1, P38041 = target: T3, Boi1, P38041; settings: median of control spots 1162
Boi2, P39969 = target: T4, Boi2, P39969; settings: median of control spots 1161
Bud14, P27637 = target: T5, Bud14, P27637; settings: median of control spots 956
Bzz1-1, P38822 = target: T6, Bzz1-1, P38822; settings: median of control spots 4446
Bzz1-2, P38822 = target: T7, Bzz1-2, P38822; settings: median of control spots 4538
Cdc25, P04821 = target: T8, Cdc25, P04821; settings: median of control spots 969
Cyk3, Q07533 = target: T9, Cyk3, Q07533; settings: median of control spots 1451
Fus1, P11710 = target: T10, Fus1, P11710; settings: median of control spots 1200
GST = settings: median of control spots 978
Hof1, Q05080 = target: T11, Hof1, Q05080; settings: median of control spots 4086
Hse1, P38753 = target: T12, Hse1, P38753; settings: median of control spots 1727
Lsb1, P53281 = target: T13, Lsb1, P53281; settings: median of control spots 388
Lsb3, P43603 = target: T14, Lsb3, P43603; settings: median of control spots 406
Lsb4, P32793 = target: T15, Lsb4, P32793; settings: median of control spots 397
Myo3, P36006 = settings: median of control spots 468
Myo5, Q04439 = target: T16, Myo5, Q04439; settings: median of control spots 471
Nbp2, Q12163 = target: T17, Nbp2, Q12163; settings: median of control spots 357
Pex13, P80667 = target: T18, Pex13, P80667; settings: median of control spots 1341
Pin3, Q06449 = target: T19, Pin3, Q06449; settings: median of control spots 2171
Rvs167, P39743 = settings: median of control spots 2707
Sho1, P40073 = settings: median of control spots 1148
Sla1-2, P32790 = target: T20, Sla1-2, P32790; settings: median of control spots 712
Sla1-3, P32790 = target: T21, Sla1-3, P32790; settings: median of control spots 5475

Sequence of Sho1, P40073 (P40073 287-367): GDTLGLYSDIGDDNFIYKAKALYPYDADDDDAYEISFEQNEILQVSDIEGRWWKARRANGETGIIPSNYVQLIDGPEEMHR
Sequence of Rvs167, P39743 (P39743 419-482): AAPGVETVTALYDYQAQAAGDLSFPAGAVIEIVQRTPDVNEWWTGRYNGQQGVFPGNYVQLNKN
Sequence of Bem1-2, P29366 (P29366 139-227): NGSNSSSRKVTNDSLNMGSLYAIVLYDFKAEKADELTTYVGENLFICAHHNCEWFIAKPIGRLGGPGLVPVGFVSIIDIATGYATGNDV
Sequence of Bem1-1, P29366 (P29366 55-141): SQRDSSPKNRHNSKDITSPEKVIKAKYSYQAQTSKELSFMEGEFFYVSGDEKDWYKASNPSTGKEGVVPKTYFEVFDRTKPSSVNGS

| Binder | SPOT intensity (Abp1, P15891) | SPOT intensity (Bbc1, P47068) | SPOT intensity (Bem1-1, P29366) | SPOT intensity (Bem1-2, P29366) | SPOT intensity (Boi1, P38041) | SPOT intensity (Boi2, P39969) | SPOT intensity (Bud14, P27637) | SPOT intensity (Bzz1-1, P38822) | SPOT intensity (Bzz1-2, P38822) | SPOT intensity (Cdc25, P04821) | SPOT intensity (Cyk3, Q07533) | SPOT intensity (Fus1, P11710) | SPOT intensity (GST) | SPOT intensity (Hof1, Q05080) | SPOT intensity (Hse1, P38753) | SPOT intensity (Lsb1, P53281) | SPOT intensity (Lsb3, P43603) | SPOT intensity (Lsb4, P32793) | SPOT intensity (Myo3, P36006) | SPOT intensity (Myo5, Q04439) | other results |
| --- | --- | --- | --- | --- | --- | --- | --- | --- | --- | --- | --- | --- | --- | --- | --- | --- | --- | --- | --- | --- | --- |
| B1 | 0 | 1 | 0 | 3 | 4 | 1 | 1 | 1 | 0 | 3 | 0 | 0 | 0 | 0 | 0 | 0 | 0 | 0 | 371 | 227 | SPOT intensity (Nbp2, Q12163): 0; SPOT intensity (Pex13, P80667): 0; SPOT intensity (Pin3, Q06449): 2; SPOT intensity (Rvs167, P39743): 0; SPOT intensity (Sho1, P40073): 0; SPOT intensity (Sla1-2, P32790): 0; SPOT intensity (Sla1-3, P32790): 2 |
| B2 | 37 | 2 | 0 | 3 | 4 | 0 | 9 | 0 | 1 | 10 | 0 | 0 | 0 | 1600 | 30 | 0 | 0 | 0 | 0 | 0 | SPOT intensity (Nbp2, Q12163): 0; SPOT intensity (Pex13, P80667): 45; SPOT intensity (Pin3, Q06449): 7; SPOT intensity (Rvs167, P39743): 2; SPOT intensity (Sho1, P40073): 35; SPOT intensity (Sla1-2, P32790): 0; SPOT intensity (Sla1-3, P32790): 0 |
| B3 | 0 | 0 | 8 | 0 | 0 | 0 | 1 | 72 | 12 | 6 | 0 | 0 | 0 | 2 | 0 | 0 | 0 | 0 | 431 | 298 | SPOT intensity (Nbp2, Q12163): 1; SPOT intensity (Pex13, P80667): 0; SPOT intensity (Pin3, Q06449): 6; SPOT intensity (Rvs167, P39743): 0; SPOT intensity (Sho1, P40073): 0; SPOT intensity (Sla1-2, P32790): 0; SPOT intensity (Sla1-3, P32790): 12 |
| B4 | 0 | 0 | 0 | 0 | 0 | 0 | 0 | 0 | 0 | 0 | 1 | 1 | 0 | 0 | 3 | 0 | 0 | 0 | 149 | 93 | SPOT intensity (Nbp2, Q12163): 0; SPOT intensity (Pex13, P80667): 4; SPOT intensity (Pin3, Q06449): 17; SPOT intensity (Rvs167, P39743): 0; SPOT intensity (Sho1, P40073): 0; SPOT intensity (Sla1-2, P32790): 0; SPOT intensity (Sla1-3, P32790): 0 |
